Positions count from the first letter of the chain named. In names and notes the source's numbering stands. Where a SMILES comes first, the peptide text is derived from it.
Assays:
[1] = target: T1, BBRF2Δ (Epstein-Barr virus, UniProt P29882); experiment: biochemical; type: binding, human herpesvirus 4 strain M81
T1 construct: The cDNAs for full-length BBRF2 and BBRF2_17–278 were cloned into a modified pET28 vector (pSKB); made in house; host or cells: E. coli Rosetta (DE3)
Experimental: (§1) The biolayer interferometry (BLI) assay was performed using an eight-channel OctetRED biolayer interferometry system (FortéBio).
(§2) All experiments were carried out at 25 °C. Each measurement involved an 120 s baseline (with reaction buffer), followed by a 180 s (with protein or peptide) association phase, and a 180 s dissociation phase (with reaction buffer). Raw data were processed using Octet Data Analysis software 11.0 provided by Fortebio to derive the dissociation constant (KD). The results were presented in a graph using Origin (version 2019, OriginLab).

[2] = SEC-RALS, oligomeric state in solution; type: physicochemical; details: Superdex 75 or 200, 20 mM HEPES pH 7.0, 600 mM NaCl, 10% glycerol, 1 mM DTT
Experimental: (§3) The entire experiment was performed in buffer C. The RALS data were analyzed by OMNISEC software.

[3] = 6 μM protein, 3 mM liposomes (Golgi, ER, plasma membrane mixes), 60 min, room temperature; alone or complexed with full-length BBRF2
[4] = target: T2, BBRF2Δ (BBRF2 17-278) (Epstein-Barr virus (human herpesvirus 4 …, UniProt P29882 17-278)); experiment: SEC-RALS; Superdex 75 or Superdex 200 Increase 10/300 GL; 25 μM of each purified protein mixed and incubated overnight at 4 °C; buffer C (20 mM HEPES pH 7.0, 600 mM NaCl, 10% glycerol, 1 mM DTT); details: both partners purified
T2 construct: source: E. coli Rosetta (DE3), purified (Ni-NTA, SEC)
T2 sequence: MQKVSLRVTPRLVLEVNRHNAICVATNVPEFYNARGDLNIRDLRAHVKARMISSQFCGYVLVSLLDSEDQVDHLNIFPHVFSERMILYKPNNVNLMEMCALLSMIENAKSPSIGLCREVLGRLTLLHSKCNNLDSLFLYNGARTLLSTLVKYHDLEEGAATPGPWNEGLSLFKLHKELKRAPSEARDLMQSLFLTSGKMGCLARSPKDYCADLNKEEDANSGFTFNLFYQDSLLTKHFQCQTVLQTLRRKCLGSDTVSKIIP

[5] = target: the molecule itself; experiment: as above
[6] = tested on: BBRF2Δ(F209K); experiment: Biolayer interferometry (BLI) on BBRF2Δ(F209K); type: binding, human herpesvirus 4 strain M81; details: compared to wild-type, pH 7.0, 25 °C
Experimental: as §1, §2

[7] = tested on: BSRF1Δ; experiment: SEC analysis, BBRF2Δ mutants with BSRF1Δ; type: binding, human herpesvirus 4 strain M81; details: Superdex 75, 25 μM each, overnight at 4 °C, buffer C pH 7.0
Experimental: as §3

[8] = Solubility of recombinant BSRF1 constructs; type: physicochemical; details: recombinant protein
[9] = target: T3, His6-tagged BBRF2Δ (Epstein-Barr virus (human herpesvirus 4 strain M81)), P29882; experiment: BLI
T3 chain: T2 sequence

[10] = target: T2, BBRF2Δ (BBRF2 17-278); experiment: SEC; details: both partners purified
[11] = target: T4, His6-tagged BBRF2Δ (Epstein-Barr virus (human herpesvirus 4 …, UniProt P29882 17-278)); experiment: BLI; details: both partners purified
T4 construct: also called His-tagged BBRF2Δ; source: E. coli Rosetta (DE3), purified; not shown: His6, N-terminal, kept
T4 sequence: T2 sequence

With `CC[C@H](C)[C@H](NC(=O)[C@H](CO)NC(=O)[C@H](CC(N)=O)NC(=O)[C@H](C)NC(=O)[C@H](CCC(N)=O)NC(=O)[C@@H](NC(=O)[C@H](C)NC(=O)[C@H](CC(C)C)NC(=O)[C@H](CC(C)C)NC(=O)[C@H](Cc1ccc(O)cc1)NC(=O)[C@@H](NC(=O)[C@H](CCC(N)=O)NC(=O)[C@H](CCCNC(=N)N)NC(=O)[C@H](CC(C)C)NC(=O)[C@H](CO)NC(=O)CNC(=O)[C@H](CCSC)NC(=O)[C@@H](NC(=O)[C@H](CCC(N)=O)NC(=O)[C@H](CCC(=O)O)NC(=O)[C@H](CC(N)=O)NC(=O)[C@H](CCCNC(=N)N)NC(=O)[C@H](CC(C)C)NC(=O)[C@H](CC(C)C)NC(=O)[C@H](CC(=O)O)NC(=O)CNC(=O)[C@@H](NC(=O)[C@H](CCC(N)=O)NC(=O)[C@@H](NC(=O)CNC(=O)[C@@H]1CCCN1C(=O)[C@@H]1CCCN1C(=O)[C@H](CC(C)C)NC(=O)CNC(=O)[C@H](CC(C)C)NC(=O)[C@@H](N)CC(=O)O)C(C)C)C(C)C)[C@@H](C)O)C(C)C)C(C)C)C(=O)N[C@H](C(=O)N[C@@H](CC(=O)O)C(=O)O)[C@@H](C)O` [P1] (H-DLGLPPGVQVGDLLRNEQTMGSLRQVYLLAVQANSITD-OH) the Kd [1] was 7.43 µM.

B1: BSRF1_(20-218) (domain or fragment)
chain: RNRYSQLPEEPETFECPDRWRAEIDLGLPPGVQVGDLLRNEQTMGSLRQVYLLAVQANSITDHLKRFDAVRVPESCRGVVEAQVAKLEAVRSVIWNTMISLAVSGIEMDENGLKALLDKQAGDSLALMEMEKVATALKMDETGAWAQEISAVVSSVTAPSASAPFINSAFEPEVPTPVLAPPPVVRQPEHSGPTELALT
notes: also called near-full-length BSRF1; source: E. coli, purified (as the BBRF2 constructs, 300 mM NaCl, no glycerol)
For B1, the “oligomeric state in solution” value [2] was “dimerized in solution”, the membrane binding [3] was “did not exhibit a strong tendency for membrane binding” and the “stoichiometry N” value [4] was 1. For the same molecule, the “stoichiometry N” value [5] was 2.

B2: BBRF2Δ: N-terminally truncated version with deletion of residues 1−16 (protein)
chain: T2 sequence
With B2 the “oligomeric state in solution” value [2] was “monomeric both in solution and in the asymmetric unit of the crystal”.

B3: BBRF2Δ(F209K): BBRF2Δ with Phe209 mutated to lysine (protein)
chain: T2 sequence with F193K
In the case of B3, the “binding affinity of BBRF2Δ(F209K) with BSRF1Δ, in words” value [6] is reported as “moderately reduced binding affinity” and the “complex formation with BSRF1Δ” value [7] is reported as “maintained the binding for BSRF1Δ”.

B4: BBRF2Δ(M205K): BBRF2Δ with Met205 mutated to lysine (protein)
chain: T2 sequence with M189K
With B4 the “complex formation with BSRF1Δ” value [7] was “did not form a complex with BSRF1Δ”.

B5: BSRF1: Full-length BSRF1 (residues 1–218), EBV tegument protein (protein)
chain: MAFYLPDWSCCGLWLFGRPRNRYSQLPEEPETFECPDRWRAEIDLGLPPGVQVGDLLRNEQTMGSLRQVYLLAVQANSITDHLKRFDAVRVPESCRGVVEAQVAKLEAVRSVIWNTMISLAVSGIEMDENGLKALLDKQAGDSLALMEMEKVATALKMDETGAWAQEISAVVSSVTAPSASAPFINSAFEPEVPTPVLAPPPVVRQPEHSGPTELALT
modifications: left off: Flag, end not stated, kept
notes: Full-length BSRF1 (residues 1–218), EBV tegument protein
With B5 the solubility [8] was “insoluble”.

B6: BBRF2: EBV tegument protein, full-length (protein)
chain: MASGKHHQPGGTRSLTMQKVSLRVTPRLVLEVNRHNAICVATNVPEFYNARGDLNIRDLRAHVKARMISSQFCGYVLVSLLDSEDQVDHLNIFPHVFSERMILYKPNNVNLMEMCALLSMIENAKSPSIGLCREVLGRLTLLHSKCNNLDSLFLYNGARTLLSTLVKYHDLEEGAATPGPWNEGLSLFKLHKELKRAPSEARDLMQSLFLTSGKMGCLARSPKDYCADLNKEEDANSGFTFNLFYQDSLLTKHFQCQTVLQTLRRKCLGSDTVSKIIP
In the case of B6, the “oligomeric state in solution” value [2] is reported as “monomer in solution”.

In the case of DLGLPPGVQVGDLLRNEQTMGSLRQVYLLAVQANSITD (modifications not checked) [BSRF1-derived peptide 1], the Kd [9] is reported as 7.4 µM.

B7: BSRF1Δ with Cys95 mutated to serine (domain or fragment)
chain: ECPDRWRAEIDLGLPPGVQVGDLLRNEQTMGSLRQVYLLAVQANSITDHLKRFDAVRVPESSRGVVEAQVAKLEAVRSVIWNTMISLAVSGIEMDENGLKALLDKQAGDSLALMEMEKVATALKMD
notes: also called BSRF1Δ(C95S); source: E. coli, purified
B7: binds [10].

B8: BSRF1Δ(N59K) (domain or fragment)
chain: B7 chain with N26K, S62C
notes: source: E. coli, purified
B8: binds [11]; binds [10].

B9: BSRF1Δ(M63D) (domain or fragment)
chain: B7 chain with M30D, S62C
notes: source: E. coli, purified
B9: binds [11]; binds [10].

Source: PMC7588443 (Nature Communications, 2020)
